Ends that are not written are not given here. * marks the point of attachment. Biotin = O=C1N[C@H]2[C@H](CS[C@H]2CCCCC(=O)*)N1
How the values were obtained:
[1] = target: T1, GST-MPP2 PDZ domain fusion protein (maguk p55 subfamily member 2 (DLG2) AA185-273; PDZ domain 1 of 1) (UniProt P08515 1-218 = GST); assay: A/G assays
T1 construct: also called MMP2

[2] = target: T2, GST-TAX2 PDZ domain fusion protein (human tax interaction protein 2 AA54-140; PDZ domain 1 of 1) (human, UniProt P08515 1-218 = GST); assay: A/G assays
T2 construct: also called TX 2

[3] = target: T3, GST-TAX33 PDZ domain fusion protein (tax interaction protein 33 AA73-162; PDZ domain 1 of 1) (UniProt P08515 1-218 = GST); assay: A/G assays
T3 construct: also called TX33

[4] = target: GST-LIMK2 PDZ domain fusion protein (human LIM domain kinase 2 AA185-275; PDZ domain 1 of 1) (human, UniProt P08515 1-218 = GST); assay: A/G assays
[5] = target: T4, GST-KIAA0303 PDZ domain fusion protein (KIAA0303 AA652-742; PDZ domain 1 of 1) (UniProt P08515 1-218 = GST); assay: A/G assays
T4 construct: also called K303

[6] = target: GST-NOS1 PDZ domain fusion protein (human neuronal nitric oxide synthase; PDZ domain 1 of 1) (human, UniProt P08515 1-218 = GST); assay: A/G assays
[7] = target: GST-PTN-4 PDZ domain fusion protein (protein-tyrosine phosphatase meg1 AA774-862; PDZ domain 1 of 1) (UniProt P08515 1-218 = GST); assay: A/G assays
[8] = target: T5, GST-KIAA0316 PDZ domain fusion protein (KIAA0316 AA197-284; PDZ domain 1 of 1) (UniProt P08515 1-218 = GST); assay: A/G assays
T5 construct: also called K316

[9] = target: GST-LIM PDZ domain fusion protein (Human LIM protein AA29-112; PDZ domain 1 of 1) (human, UniProt P08515 1-218 = GST); assay: A/G assays
[10] = target: T6, GST-KIAA0559 PDZ domain fusion protein (KIAA0559 AA766-870; PDZ1 of 1) (UniProt P08515 1-218 = GST); assay: A/G assays
T6 construct: also called K559

[11] = target: GST-MINT3 PDZ domain fusion protein (human MINT3 AA11-52; PDZ domain 1 of 1) (human, UniProt P08515 1-218 = GST); assay: A/G assays
[12] = target: T7, GST-CBP PDZ domain fusion protein (Cytohesin binding protein HE AA85-175; PDZ domain 1 of 1) (UniProt P08515 1-218 = GST); assay: A/G assays
T7 construct: also called Prot

[13] = target: T8, GST-CASK PDZ domain fusion protein (CASK AA495-584; PDZ domain 1 of 1) (mouse, UniProt P08515 1-218 = GST); assay: G assay
T8 construct: also called mCASK

[14] = target: T9, GST-NeDLG PDZ domain fusion protein (presynaptic protein sao102, neuroendocrine-dlg; PDZ domains 1-2 of 3) (UniProt P08515 1-218 = GST); assay: G assay
T9 construct: also called NeDLG1

[15] = target: T10, GST-TAX43 PDZ domain fusion protein (human tax interaction protein 43 AA15-85; PDZ domain 1 of 1) (human, UniProt P08515 1-218 = GST); assay: A assay
T10 construct: also called TX 43

[16] = target: T11, GST-TAX40 PDZ domain fusion protein (human tax interaction protein 40 AA35-137; PDZ domain 1 of 1) (human, UniProt P08515 1-218 = GST); assay: A assay
T11 construct: also called TX 40

[17] = target: T12, GST-RGS12 PDZ domain fusion protein (human regulator of G-protein signalling 12 AA35-103; PDZ domain 1 of 1) (human, UniProt P08515 1-218 = GST); assay: A assay
T12 construct: also called RSG12

[18] = target: T13, GST-prIL16 PDZ domain fusion protein (putative interleukin 16 precursor AA170-383; PDZ domains 1-2 of 2) (UniProt P08515 1-218 = GST); assay: A assay
[19] = target: T14, GST-AF6 PDZ domain fusion protein (af-6 protein AA985-1077; PDZ domain 1 of 1) (UniProt P08515 1-218 = GST); assay: A assay
[20] = target: T15, GST-TIAM1 PDZ domain fusion protein (T-lymphoma invasion and metastasis inducing protein 1 AA1001-1088); PDZ 1 … (UniProt P08515 1-218 = GST); assay: A assay
[21] = target: T16, GST-DVL1 PDZ domain fusion protein (human dishevelled segment polarity protein homolog AA248-340); PDZ domain … (human, UniProt P08515 1-218 = GST); assay: A assay
[22] = target: T17, GST-SYN1a PDZ domain fusion protein (alpha1-syntrophin AA96-189; PDZ domain 1 of 1) (UniProt P08515 1-218 = GST); assay: A assay
T17 construct: also called SYN 1 alpha; SYNTR 1 alpha

[23] = target: T18, GST-41.8 kD PDZ domain fusion protein (hypothetical 41.8 kD protein AA4-85; PDZ domain 1 of 1) (UniProt P08515 1-218 = GST); assay: A assay
T18 construct: also called hypoth

[24] = target: T19, GST-MPP1 PDZ domain fusion protein (55 Kd erythrocyte membrane protein AA101-186; PDZ domain 1 of 1) (UniProt P08515 1-218 = GST); assay: A assay
[25] = target: T20, GST-PSD95 PDZ domain fusion protein (human post-synaptic density protein 95 AA387-724; PDZ domains 1-3 of 3) (human, UniProt P08515 1-218 = GST); assay: A and G assays
[26] = target: T8, GST-CASK PDZ domain fusion protein …; assay: A/G assays
[27] = target: T20, GST-PSD95 PDZ domain fusion protein …; assay: A/G assays
[28] = target: T10, GST-TAX43 PDZ domain fusion protein …; assay: A/G assays
[29] = target: T11, GST-TAX40 PDZ domain fusion protein …; assay: A/G assays
[30] = target: T12, GST-RGS12 PDZ domain fusion protein …; assay: A/G assays
[31] = target: T14, GST-AF6 PDZ domain fusion protein (af-6 …); assay: A/G assays
[32] = target: T15, GST-TIAM1 PDZ domain fusion protein …; assay: A/G assays
[33] = target: T16, GST-DVL1 PDZ domain fusion protein …; assay: A/G assays
[34] = target: T17, GST-SYN1a PDZ domain fusion protein …; assay: A/G assays
[35] = target: T9, GST-NeDLG PDZ domain fusion protein …; assay: A/G assays
[36] = target: T18, GST-41.8 kD PDZ domain fusion protein …; assay: A/G assays
[37] = target: T13, GST-prIL16 PDZ domain fusion protein …; assay: G assay
[38] = target: T19, GST-MPP1 PDZ domain fusion protein (55 …); assay: G assay

Measured: binding result

T14 sequence (P08515 1-218, tags or fused parts left off): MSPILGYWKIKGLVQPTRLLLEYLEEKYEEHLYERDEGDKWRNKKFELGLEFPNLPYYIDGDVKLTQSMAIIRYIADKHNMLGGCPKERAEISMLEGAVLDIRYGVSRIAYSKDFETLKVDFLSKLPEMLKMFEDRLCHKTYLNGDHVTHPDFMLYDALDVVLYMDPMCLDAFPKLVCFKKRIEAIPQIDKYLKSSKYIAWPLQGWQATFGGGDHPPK
T4 sequence (P08515 1-218, tags or fused parts left off): as above
Chain of GST-MINT3 PDZ domain fusion protein (human MINT3 AA11-52; PDZ domain 1 of 1) (P08515 1-218, tags or fused parts left off): as above
T9 sequence (P08515 1-218, tags or fused parts left off): as above
T16 sequence (P08515 1-218, tags or fused parts left off): as above
T5 sequence (P08515 1-218, tags or fused parts left off): as above
T1 sequence (P08515 1-218, tags or fused parts left off): as above
T18 sequence (P08515 1-218, tags or fused parts left off): as above
Chain of GST-LIM PDZ domain fusion protein (Human LIM protein AA29-112; PDZ domain 1 of 1) (P08515 1-218, tags or fused parts left off): as above
T3 sequence (P08515 1-218, tags or fused parts left off): as above
T11 sequence (P08515 1-218, tags or fused parts left off): as above
T12 sequence (P08515 1-218, tags or fused parts left off): as above
T15 sequence (P08515 1-218, tags or fused parts left off): as above
T2 sequence (P08515 1-218, tags or fused parts left off): as above
T8 sequence (P08515 1-218, tags or fused parts left off): as above
Chain of GST-PTN-4 PDZ domain fusion protein (protein-tyrosine phosphatase meg1 AA774-862; PDZ domain 1 of 1) (P08515 1-218, tags or fused parts left off): as above
T10 sequence (P08515 1-218, tags or fused parts left off): as above
T7 sequence (P08515 1-218, tags or fused parts left off): as above
T20 sequence (P08515 1-218, tags or fused parts left off): as above
T19 sequence (P08515 1-218, tags or fused parts left off): as above
T6 sequence (P08515 1-218, tags or fused parts left off): as above

B1: Neurexin C-terminal PL peptide AA38L, biotinylated (peptide)
peptide: Biotin-SSAKSSNKNKKNKDKEYYV
no binding: [1] | [2] | [3] | [4] | [5] | [6] | [7] | [8] | [9] | [10] | [11] | [12]
binds: [13] | [14] | [15] | [16] | [17] | [18] | [19] | [20] | [21] | [22] | [23] | [24] | [25]

B2: CD44 (long form) C-terminal PL peptide AA9L, biotinylated (peptide)
peptide: Biotin-QFMTADETRNLQNVDMKIGV
binds: [37] | [38]
not listed: [13] | [14] | [15] | [16] | [17] | [18] | [19] | [20] | [21] | [22] | [23] | [24] | [25]
no binding: all other assays above

— patent US20090149339A1 (published 2009)
